Test results reported in paper PMC6363796, “Identification and characterization of a direct activator of a gene transfer agent”.

B1: pGafA_50 (gafA promoter) (dsDNA)
DNA 1: TCGAGATCGCCCCATTTCTTAACCAAGGGGTAACCAAAGCAACCCACGGT
DNA 2: ACCGTGGGTTGCTTTGGTTACCCCTTGGTTAAGAAATGGGGCGATCTCGA
B2: pGTA1 (dsDNA)
DNA 1: TCCGGGGTTTTTTCTTTTCAGCGGGTGCAACCCTGAATATAGCACTTGAC
DNA 2: GTCAAGTGCTATATTCAGGGTTGCACCCGCTGAAAAGAAAAAACCCCGGA
B3: pGTA3 (dsDNA)
DNA 1: GCGCCGCGGGTGACCGTGTGCGCTTTTTTCATTTCGCTCGTGCGGACAGG
DNA 2: CCTGTCCGCACGAGCGAAATGAAAAAAGCGCACACGGTCACCCGCGGCGC
B4: pGTA4 (dsDNA)
DNA 1: TTCATTTCGCTCGTGCGGACAGGCATGAGAGGCGGGTCACGCAAGACATG
DNA 2: CATGTCTTGCGTGACCCGCCTCTCATGCCTGTCCGCACGAGCGAAATGAA
B5: pGTA5 (dsDNA)
DNA 1: GGCATGCTAGGAGAGGTGGGCAAGCGCCGCGGGTGACCGTGTGCGCTTTT
DNA 2: AAAAGCGCACACGGTCACCCGCGGCGCTTGCCCACCTCTCCTAGCATGCC

How the values were obtained:
GtaR = molecular target: T1, GtaR (Rhodobacter capsulatus, UniProt D5AM23 1-203); test: EMSA; binding detected at 375 nM protein or above; GtaR buffer; 80 nM Cy5-dsDNA, 25 mM HEPES pH 8.0, 50 mM K-glutamate, 50 mM MgSO4, 1 mM DTT, 0.1 mM EDTA, 0.05% Triton X-100, 1 ug poly dI:dC, 4% glycerol, 30 C 15 min; GtaR: 10 mM HEPES pH 8, 40 mM NaCl, 37 C 30 min; PCR products: pGTA 2 ng/ul, unlabelled 100 ng; details: protein: recombinant; tags: His6 (pEHisTEV, N-terminal); chain copies: 2; label: 5'-Cy5 (one strand); blunt
T1 sequence: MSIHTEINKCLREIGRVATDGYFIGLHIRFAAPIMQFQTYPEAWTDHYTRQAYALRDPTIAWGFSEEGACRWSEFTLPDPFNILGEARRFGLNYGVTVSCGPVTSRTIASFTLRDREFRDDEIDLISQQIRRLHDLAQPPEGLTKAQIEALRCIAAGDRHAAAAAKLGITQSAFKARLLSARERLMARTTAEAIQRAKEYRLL

CtrA = molecular target: T2, CtrA (Rhodobacter capsulatus, UniProt D5ATW9 1-237); test: EMSA; 80 nM Cy5-dsDNA, 25 mM HEPES pH 8.0, 50 mM K-glutamate, 50 mM MgSO4, 1 mM DTT, 0.1 mM EDTA, 0.05% Triton X-100, 1 ug poly dI:dC, 4% glycerol, 30 C 15 min; GtaR: 10 mM HEPES pH 8, 40 mM NaCl, 37 C 30 min; PCR products: pGTA 2 ng/ul, unlabelled 100 ng; details: protein: recombinant; tags: His6 (pEHisTEV, N-terminal); chain copies: 2; label: 5'-Cy5 (one strand); blunt
T2 sequence: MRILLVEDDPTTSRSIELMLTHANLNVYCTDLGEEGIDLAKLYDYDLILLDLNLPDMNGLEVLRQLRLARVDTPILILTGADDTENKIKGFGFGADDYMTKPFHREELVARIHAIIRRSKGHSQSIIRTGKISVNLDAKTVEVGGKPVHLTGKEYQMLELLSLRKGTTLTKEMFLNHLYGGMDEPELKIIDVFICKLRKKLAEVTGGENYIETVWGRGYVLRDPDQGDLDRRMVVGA

GafA = molecular target: T3, GafA (Rhodobacter capsulatus, UniProt D5AUH1 1-382); test: EMSA; 2 uM GafA; 80 nM Cy5-dsDNA, 25 mM HEPES pH 8.0, 50 mM K-glutamate, 50 mM MgSO4, 1 mM DTT, 0.1 mM EDTA, 0.05% Triton X-100, 1 ug poly dI:dC, 4% glycerol, 30 C 15 min; GtaR: 10 mM HEPES pH 8, 40 mM NaCl, 37 C 30 min; PCR products: pGTA 2 ng/ul, unlabelled 100 ng; details: protein: recombinant; tags: His6 (pCMF176) or His6-MBP (pCMF193); label: 5'-Cy5 (one strand); blunt
T3 sequence: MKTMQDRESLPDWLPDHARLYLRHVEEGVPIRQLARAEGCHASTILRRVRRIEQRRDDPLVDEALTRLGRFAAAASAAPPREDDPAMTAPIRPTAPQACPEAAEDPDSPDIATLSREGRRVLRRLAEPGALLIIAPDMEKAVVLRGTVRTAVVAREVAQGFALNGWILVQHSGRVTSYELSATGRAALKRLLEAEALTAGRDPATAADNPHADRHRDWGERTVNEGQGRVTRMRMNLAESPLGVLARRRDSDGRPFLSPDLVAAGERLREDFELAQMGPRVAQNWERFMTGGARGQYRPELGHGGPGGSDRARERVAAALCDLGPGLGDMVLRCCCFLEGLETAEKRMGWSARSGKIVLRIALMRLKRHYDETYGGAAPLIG

| Binder | binding result (GtaR) | Kd (CtrA) | binding result (GafA) |
| --- | --- | --- | --- |
| B1 | binds | 54.9 nM |  |
| B2 |  |  | no binding |
| B3 |  |  | no binding |
| B4 |  |  | no binding |
| B5 |  |  | no binding |
